Source: patent US12275759B2, “Hepatitis B virus replication inhibitor and pharmaceutical composition for treating hepatitis B comprising the same” (RIKEN, priority 2018, dated 2025)
Changes are numbered by the printed parent chain. Names and notes keep the numbering of the source.

Tests used:
Format in all cases: cell-based, hepatitis B virus
[1] = test system: HBV replication; assay: system for evaluating HBV replication activity (reporter (−) DNA quantitative PCR) in HeLa cells, with wild type HBc; details: GLS4 0.08 to 5 μM, HBc-WT in the system; FIG. 13
[2] = test system: HBV replication by HBc-T33N; assay: system for evaluating HBV replication activity in HeLa cells with HBc-T33N in place of HBc-WT; details: GLS4 0.08 to 5 μM, FIG. 13
Description: The T residue at position 33 was substituted with an N residue (denoted as T33N) by a site-directed mutagenesis method using PrimeSTAR Mutagenesis Basal Kit (Takara Bio Inc.) using the full length HBc expression vector (pCI-HBc) of genotype C used in Example 1 as the template. The T33N mutant of the full length HBc having introduced the point mutation is denoted as HBc-T33N.
The measurement of the HBV replication activity by HBc-WT or HBc-T33N was performed in accordance with the method described in Example 1 using HBc-WT or HBc-T33N as HBc comprised in the system for evaluating HBV replication described in Example 1 in the presence of GLS4 at a concentration of 0 μM, 0.08 μM, 0.16 μM, 0.31 μM, 0.63 μM, 1.25 μM, 2.5 μM, or 5 μM. Based on the obtained measurement value of HBV replication activity (amount of reverse transcribed HBV DNA), the efficiency for inhibition of HBV replication (%) was calculated.
The evaluation of the inhibitory effect on HBV replication of the spike region ΔHBc(α1-4b) was in accordance with the method described in Example 2. However, in this Example, HBc-WT or HBc-T33N was used as the HBc comprised in the system for evaluating HBV replication described in Example 2.

[3] = test system: HBV replication; assay: system for evaluating HBV replication activity (reporter (−) DNA quantitative PCR) in HeLa cells, with wild type HBc; details: for inhibitory effect on HBV replication: pCI-HBc:pCI-ΔHBc = 9:26, 24 hours culture, amount of reporter (−) DNA vs positive control (empty vector), FIG. 7, 9, 11A; for inhibitory activity on HBV replication compared to wild type pCI-ΔHBc(α1-4b): single ratio as in Example 1, FIG. 11A
From the text: The effect of each of the aforementioned ΔHBc expression vector (pCI-ΔHBc) on HBV replication was examined using the system for evaluating HBV replication activity described in WO2018/030534 developed by the present inventors.
Specifically, the system for evaluating HBV replication activity consisting of the vector for evaluating HBV replication activity (pBB-intron) encoding the reporter pgRNA shown in FIG. 5A, the HBV-P expression vector (pCI—HBV-Pol) shown in FIG. 5B, the HBc expression vector (pCI-HBc) shown in FIG. 5C, and the HBx expression vector (pCI-HBx) shown in FIG. 5D was introduced into HeLa cells together with each pCI-ΔHBc. The introduction ratio of the respective expression vectors was pBB-intron: pCI-HBc: pCI—HBV-Pol: pCI-HBx: pCI-ΔHBc=13:9:3:1:26. According to this ratio, the amount of ΔHBc is about three times (2.89 times) as much as that of the wild type HBc functioning in HBV replication. As a positive control, an empty vector (pCI) was introduced at the same ratio as pCI-ΔHBc. For gene introduction into HeLa cells, the electroporation method was used. Using an Electroporator Nepa21 (Nepa Gene Co., Ltd.) 10 μg of DNA was introduced into approximately 1×10^6 cells under the condition of 125 V/2.5 ms pulse length. The HeLa cells after gene introduction were cultured in DMEM to which 2 mL of 10% FBS was added in the presence of 5% CO2 at 37° C. for 24 hours.
When the vector for evaluating HBV replication activity (pBB-intron) described above is introduced into HeLa cells, pre-mRNA shown in FIG. 6A is synthesized by RNA-pol II in HeLa cells, then an intron comprised in the reporter sequence of pBB-intron is immediately removed by pre-mRNA splicing in HeLa cells. […] The amount of this reporter (−) DNA reflects the replication activity and replication amount of HBV. Therefore, when DNA is extracted from the cells in which the system for evaluating HBV replication activity and pCI-ΔHBc are introduced, the amount thereof is quantified with a primer set specific to the reporter (−) DNA, and then compared with the amount of the positive control, the effect of pCI-ΔHBc on the HBV replication can be evaluated.
DNA was extracted from HeLa cells after culture using DNeasy Mini (Qiagen N.V.). Then, quantitative PCR was performed using a primer set specific to the reporter (−) DNA after reverse transcription. For primers, a forward primer (Primer F) consisting of the base sequence shown in SEQ ID NO: 23, and a reverse primer (Primer R) consisting of the base sequence shown in SEQ ID NO: 24 were used. […] Therefore, it functions as a primer only when there is a reporter (−) DNA having the reporter sequence from which the intron has been removed, and the DNA fragment of 131 bases is amplified.
The basic procedures were in accordance with Example 1. As pCI-ΔHBc to be introduced into HeLa cells together with the system for evaluating HBV replication activity, only pCI-ΔHBc(α1-4b) was used. The introduction ratio of the respective expression vectors was set such that the ratio of pCI-HBc: pCI—HBV-Pol: pCI-HBx was 9:3:1, and the ratio of pBB-intron: pCI-HBc/pCI—HBV-Pol/pCI-HBx was 1:1. Then, only the system for evaluating HBV replication activity in which the ratio of pCI-ΔHBc(α1-4b): pBB-intron/pCI-HBc/pCI—HBV-Pol/pCI-HBx was adjusted to 1:26, 3:26, 9:26, or 26:26, was introduced as a positive control. In each sample, an empty vector (pCI) was used for adjustment so that the amount of the vector to be introduced is the same.

[4] = test system: full length HBc; assay: Western blotting under non-reducing conditions of HBc dimer and multimer formation in HeLa cells; details: PA-tagged ΔHBc coexpressed with full length HBc in HeLa cells, antibody #511; FIG. 12A
Description: Each of the expression vectors of the wild type full length HBc (HBc-WT), and mutant full length HBc (HBc-F23A and HBc-L42A) was introduced into HeLa cells, which were cultured for 24 hours. Then proteins were extracted with a WB lysis buffer (1% Triton, 25 mM Tris pH 7.4, 150 mM NaCl). After addition of CuSO4 (100 μM), the protein extract was incubated at room temperature for 20 min, and neutralized with 1 mM EDTA, to which α13-ME-free SDS-PAGE sample buffer was added. Then SDS-PAGE was performed using a 10 to 20% polyacrylamide gel (SuperSep™ Ace, FUJIFILM Wako Pure Chemical Corporation). After the electrophoresis, the proteins were transferred to a PVDF membrane using a semi-dry blotter, and Western blotting was performed using a mouse anti-human HBc monoclonal antibody (#511).
The basic procedures were in accordance with the method described in Example 4. pCI-ΔHBc(α1-4b)-PA alone, or pCI-ΔHBc(α1-4b)-PA and pCI-ΔHBc(α1-4b)-F23A-PA at a ratio of 1:1 were introduced into HeLa cells.

Molecule: CCOC(=O)C1=C(CN2CCOCC2)NC(c2nccs2)=NC1c1ccc(F)cc1Br (stereo not drawn) [GLS4]
- inhibitory effect on HBV replication by HBc-WT (efficiency of inhibition) [1]: inhibited HBV replication by HBc-WT in a concentration-dependent manner
- inhibitory effect on HBV replication by HBc-T33N (efficiency of inhibition) [2]: did not exhibit inhibitory effect on HBV replication by HBc-T33N

Molecule: α1-2b (MDIDPYKEFGASVELLSFLPSDFFPSIRDLLDTASALYREALESPEHCS)
- inhibitory effect on HBV replication ([3]; HeLa cells): inhibitory activity on HBV replication was lost

Molecule: α4ab (MSNLEDPASRELVVSYVNVNMGLKIRQLLWFHISCLTFG)
- inhibitory effect on HBV replication ([3]; HeLa cells): inhibitory activity on HBV replication was lost

B1: α3-4b (protein)
chain: MSPEHCSPHHTALRQAILCWGELMNLATWVGSNLEDPASRELVVSYVNVNMGLKIRQLLWFHISCLTFG
- inhibitory effect on HBV replication ([3]; HeLa cells): inhibitory activity on HBV replication was lost

B2: ΔHBc(α1-4b)-F23A (protein)
chain: MDIDPYKEFGASVELLSFLPSDAFPSIRDLLDTASALYREALESPEHCSPHHTALRQAILCWGELMNLATWVGSNLEDPASRELVVSYVNVNMGLKIRQLLWFHISCLTFG
- dose-dependent inhibition of HBV replication ([3]; HeLa cells, HBc-WT, ΔHBc/WT-HBc expression vector ratio 1/9, 3/9, 9/9, 26/9, FIG. 8, 11B, 14 left): inhibited HBV replication depending on its expression level
- inhibitory effect on HBV replication ([3]; HeLa cells): inhibitory effect on HBV replication activity was maintained
- inhibitory activity on HBV replication compared to wild type pCI-ΔHBc(α1-4b) ([3]; HeLa cells): more strongly inhibited than in the cells having introduced the wild type pCI-ΔHBc(α1-4b)
- inhibitory activity on HBV replication compared to ΔHBc(α1-4b), dose series ([3]; plasmids serially diluted with empty vector as in Example 2, FIG. 11B): stronger inhibitory activity on HBV replication than ΔHBc(α1-4b)
- effect on multimer formation of the full length HBc [4]: inhibited the normal multimer formation of the full length HBc

B3: ΔHBc(α1-4b)-L42A (protein)
chain: B2 chain with A23F, L42A
- inhibitory effect on HBV replication ([3]; HeLa cells): inhibitory effect on HBV replication activity was maintained
- inhibitory activity on HBV replication compared to wild type pCI-ΔHBc(α1-4b) ([3]; HeLa cells): reduced compared to the wild type pCI-ΔHBc(α1-4b)

B4: HR-RDBD (protein)
chain: MGRETVLEYLVSFGVWIRTPPAYRPPNAPILSTLPETTVVRRRGRSPRRRTPSPRRRRSQSPRRRRSQSRESQC
- inhibitory effect on HBV replication ([3]; HeLa cells): did not show the inhibitory activity on HBV replication

B5: α1-4a (protein)
chain: MDIDPYKEFGASVELLSFLPSDFFPSIRDLLDTASALYREALESPEHCSPHHTALRQAILCWGELMNLATWVGSNLEDPASRELVVSYVNV
- inhibitory effect on HBV replication ([3]; HeLa cells): inhibitory activity on HBV replication was lost

B6: α2-4b (protein)
chain: MFLPSDFFPSIRDLLDTASALYREALESPEHCSPHHTALRQAILCWGELMNLATWVGSNLEDPASRELVVSYVNVNMGLKIRQLLWFHISCLTFG
- inhibitory effect on HBV replication ([3]; HeLa cells): inhibitory activity on HBV replication was lost
